We go through nine molecules from patent US20260184794A1, “ANTIBODIES AGAINST INTEGRIN ALPHA 11 BETA 1 AND USES THEREOF” (Momenta Pharmaceuticals, Inc., priority 2022, published 2026).

By EC50 is commonly meant the midpoint of the concentration-response curve. Usually IC50 stands for the concentration that inhibits the measured activity by half.

Experiment [1] concerns Precision cut kidney slices (PCKS). In words: Human fibrotic precision cut kidney slices (PCKS) treated with TGF-β1 and PDGFββ, secreted mediators. It counts as cell-based. Particulars: increasing antibody doses, dose dependent; for inhibition of secreted Col1a1: FIG. 2; for inhibition of secreted IL-11: FIG. 3. The method, then:
Precision cut kidney slices (PCKS) were treated with TGF-β1 and PDGFββ in the presence or absence of Alk5i and increasing doses of anti-α11β1 antibodies. The antibodies provided an inhibition of secreted pro-fibrotic and pro-inflammatory mediators Col1a1 (1994-01-C7 FIG. 2A, 79E3E3 FIG. 2B, and 16E10 FIG. 2C) and IL-11 (1994-01-C7 FIG. 3A, 79E3E3 FIG. 3B, and 16E10 FIG. 3C) in a dose dependent manner.

In experiment [2] the target is T1, CHO-hu α11 (Homo sapiens, UniProt Q9UKX5).
T1 construct: expressed in transfected cells; host or cells: CHO-K1
T1 sequence (Q9UKX5 23-1188): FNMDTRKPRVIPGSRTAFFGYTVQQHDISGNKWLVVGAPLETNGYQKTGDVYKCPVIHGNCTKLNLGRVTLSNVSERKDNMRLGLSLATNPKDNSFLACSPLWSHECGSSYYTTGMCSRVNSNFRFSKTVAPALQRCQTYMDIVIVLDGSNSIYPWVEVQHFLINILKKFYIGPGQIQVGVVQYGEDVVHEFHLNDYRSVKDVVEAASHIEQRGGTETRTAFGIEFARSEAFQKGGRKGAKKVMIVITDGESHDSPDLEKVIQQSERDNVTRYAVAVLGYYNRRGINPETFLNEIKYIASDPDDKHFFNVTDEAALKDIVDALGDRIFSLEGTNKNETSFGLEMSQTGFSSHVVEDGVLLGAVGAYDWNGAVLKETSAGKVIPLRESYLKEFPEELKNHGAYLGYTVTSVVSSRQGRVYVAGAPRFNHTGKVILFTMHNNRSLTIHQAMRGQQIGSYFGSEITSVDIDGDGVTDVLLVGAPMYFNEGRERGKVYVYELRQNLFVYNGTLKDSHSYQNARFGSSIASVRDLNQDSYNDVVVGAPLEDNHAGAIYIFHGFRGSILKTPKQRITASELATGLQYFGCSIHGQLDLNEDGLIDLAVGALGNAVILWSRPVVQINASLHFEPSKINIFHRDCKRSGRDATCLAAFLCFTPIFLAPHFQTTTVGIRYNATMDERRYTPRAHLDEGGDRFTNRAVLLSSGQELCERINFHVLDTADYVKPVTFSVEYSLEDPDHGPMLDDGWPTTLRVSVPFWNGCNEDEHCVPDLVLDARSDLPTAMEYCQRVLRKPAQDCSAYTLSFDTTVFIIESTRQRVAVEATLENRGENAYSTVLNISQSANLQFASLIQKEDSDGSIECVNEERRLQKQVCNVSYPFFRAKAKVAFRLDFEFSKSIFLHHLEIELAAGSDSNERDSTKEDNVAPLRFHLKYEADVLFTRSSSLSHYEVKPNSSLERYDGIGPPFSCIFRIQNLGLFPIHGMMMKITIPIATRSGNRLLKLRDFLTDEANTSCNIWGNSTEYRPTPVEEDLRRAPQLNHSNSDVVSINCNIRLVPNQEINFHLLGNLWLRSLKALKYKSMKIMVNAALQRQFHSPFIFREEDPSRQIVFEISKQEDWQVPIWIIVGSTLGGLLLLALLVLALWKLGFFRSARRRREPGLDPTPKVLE
T1 sequence (P05556 21-798 partner): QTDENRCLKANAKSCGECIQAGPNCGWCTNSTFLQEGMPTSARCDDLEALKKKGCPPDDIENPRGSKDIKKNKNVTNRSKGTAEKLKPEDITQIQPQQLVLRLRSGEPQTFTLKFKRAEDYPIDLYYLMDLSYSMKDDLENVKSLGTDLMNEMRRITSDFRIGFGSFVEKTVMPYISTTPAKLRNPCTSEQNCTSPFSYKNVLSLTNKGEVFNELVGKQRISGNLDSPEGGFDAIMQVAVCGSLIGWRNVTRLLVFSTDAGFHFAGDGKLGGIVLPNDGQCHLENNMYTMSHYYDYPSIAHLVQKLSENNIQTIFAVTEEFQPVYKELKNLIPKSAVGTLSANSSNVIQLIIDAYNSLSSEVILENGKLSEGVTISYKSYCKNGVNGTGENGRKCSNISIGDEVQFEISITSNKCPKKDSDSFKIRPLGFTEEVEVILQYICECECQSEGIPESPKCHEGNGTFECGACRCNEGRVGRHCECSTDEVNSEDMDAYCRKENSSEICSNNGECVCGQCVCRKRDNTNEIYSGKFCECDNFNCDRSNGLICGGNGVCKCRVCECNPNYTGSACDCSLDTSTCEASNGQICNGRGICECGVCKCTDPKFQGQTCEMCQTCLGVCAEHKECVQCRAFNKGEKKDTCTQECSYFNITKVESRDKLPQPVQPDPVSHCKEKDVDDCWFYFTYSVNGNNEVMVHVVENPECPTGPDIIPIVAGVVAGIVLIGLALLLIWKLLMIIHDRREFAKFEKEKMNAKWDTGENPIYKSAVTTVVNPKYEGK
In words: FACS antibody binding to CHO-K1 cells expressing human α11. As to the method: 200,000 cells (wild-type CHO-K1 cells or CHO-K1 cells expressing human α11) were incubated with each antibody at desired concentrations in FACS buffer for 30 min at 4° C. Then, the cells were washed with FACS buffer and incubated with secondary antibody at 1:100 dilution for 30 minutes at 4° C. Cells were then washed and fixed with 1% PF A in PBS for 20 minutes at room temperature; washed again and read on a cytometer in FACS buffer.

Experiment [3] addresses mouse α11β1 (Mus musculus, UniProt P61622). In words: Cross-reactivity with mouse α11β1 (SPR). It counts as binding. Particulars: for Cross reacts with mouse α11β1: yes/no.
Experiment [4] concerns CHO cell lines expressing α11. As to the kind of experiment: Collagen gel contraction assay. It counts as cell-based. As to the method:
24-well plates were blocked with 2% BSA in PBS overnight at 37° C. The following day, the plates were washed 3 times with PBS before being used in the assay. Human CHO cell lines expressing all were harvested and resuspended at 1.25×10^6 in ExpiCHO Expression Medium (Gibco™ Cat #A2910002). The collagen gel solution was prepared by diluting 3 mg/mL stock collagen type I (Gibco™ Collagen I Rat Protein, Tail Cat #A1048301) to I mg/mL in the media containing the CHO cells. Sodium hydroxide was added to the solution to neutralize the pH and 400 μL of the collagen solution was added to each well of the 24-well plates. For the wells where the antibodies were included in the collagen gel solution, CHO cells were prepared at 2.5×10^6 and the antibodies were prepared at 2× final concentration in ExpiCHO media. The cells and antibodies were then combined 1:1 before the addition of the stock collagen type I. The gels were allowed to polymerize for 60 minutes at 37° C. Antibodies were added to the ExpiCHO media, which was then layered on top of the polymerized gel ([…]). The gels were incubated for 6 days at 37° C. before gel contraction was quantified. Images of each well were analyzed using Image J and gel contraction was determined as a percentage of the initial gel area.

The target in experiment [5] is T1, CHO-hu α11. In words: Cell adhesion inhibition on type I collagen (xCelligence). It counts as cell-based. As to the method:
0.6×10^6 cells/mL were incubated with each antibody at a range of concentrations for 20 minutes at 37° C. E-Plate VIEW 96 PET plate coated with 100 ng/ml type I collagen or PBS overnight at room temperature was blocked in 3% BSA for 1 hour at room temperature. After washing the plate with PBS, cell and antibody mixture was added to the wells and the plate was places into an xCelligence machine. Cell adhesion was recorded over 6 hours. The time point of maximum cell adhesion was used for comparison relative to control.

The target in experiment [6] is Pulmonary Myofibroblast. In words: FACS antibody binding to pulmonary myofibroblasts (HPF/MF). Particulars: Table 11, 1994-01-C7 variants, FIG. 4B. The arrangement: species or system human. The method, then: Human Pulmonary Fibroblasts (ScienCell) were cultured in complete Fibroblast Growth Medium (ScienCell) until 80% confluent in T-150 flasks. Cells were washed and harvested using Accutase. Cells were seeded into T-150 flasks at 7,500 cells/cm^2 in complete FGF and cultured for 72 hours. Cells were then washed and starved in serum reduced medium for 24 hours. After starvation, cells were treated with TGFβ1 (R&D Systems) for 72 hours. Cells were harvested using Accutase and seeded in 96-well conical bottom plates. Cells were blocked with Heat Inactived Fetal Bovine Serum (Gibco) for 30 minutes at 4° C. Cells were then incubated with anti-al I antibodies at the doses described in each figure for 30 minutes at 4° C. A human anti-al I antibody (Creative BioLabs) was included as a positive control as well as the appropriate IgG isotype negative controls. Cells were washed twice and incubated with PE conjugated secondary antibodies specific to the IgG class of the anti-α11 antibodies being tested for 30 minutes at 4° C. Cells were washed twice and fixed in 1% PF A for 30 minutes. Cells were acquired on a FACS Verse […]. Data were analyzed by gating on single cells and determining the geometric Mean Fluorescence Intensity (gMFI) in the PE channel for each sample.

Experiment [7] addresses T2, cell-mu all (Mus musculus, UniProt P61622).
T2 construct: expressed in transfected cells
As to the kind of experiment: Binding to cells expressing mouse α11.

[8] abbreviates: Table 12, 16E10 variants, FIG. 5B, read-out: CHO-α11 Adhesion Inhibition IC50.
Where [9] appears, read: Table 11, 1994-01-C7 variants, FIG. 4A.
Setting [10] is: Table 11, 1994-01-C7 variants, FIG. 4C, read-out: Inhibition of Cell Adhesion IC50.

Like-named read-outs stand apart in the source and are kept apart here.

Chain of mouse α11β1 (P61622 23-1141 limits assumed): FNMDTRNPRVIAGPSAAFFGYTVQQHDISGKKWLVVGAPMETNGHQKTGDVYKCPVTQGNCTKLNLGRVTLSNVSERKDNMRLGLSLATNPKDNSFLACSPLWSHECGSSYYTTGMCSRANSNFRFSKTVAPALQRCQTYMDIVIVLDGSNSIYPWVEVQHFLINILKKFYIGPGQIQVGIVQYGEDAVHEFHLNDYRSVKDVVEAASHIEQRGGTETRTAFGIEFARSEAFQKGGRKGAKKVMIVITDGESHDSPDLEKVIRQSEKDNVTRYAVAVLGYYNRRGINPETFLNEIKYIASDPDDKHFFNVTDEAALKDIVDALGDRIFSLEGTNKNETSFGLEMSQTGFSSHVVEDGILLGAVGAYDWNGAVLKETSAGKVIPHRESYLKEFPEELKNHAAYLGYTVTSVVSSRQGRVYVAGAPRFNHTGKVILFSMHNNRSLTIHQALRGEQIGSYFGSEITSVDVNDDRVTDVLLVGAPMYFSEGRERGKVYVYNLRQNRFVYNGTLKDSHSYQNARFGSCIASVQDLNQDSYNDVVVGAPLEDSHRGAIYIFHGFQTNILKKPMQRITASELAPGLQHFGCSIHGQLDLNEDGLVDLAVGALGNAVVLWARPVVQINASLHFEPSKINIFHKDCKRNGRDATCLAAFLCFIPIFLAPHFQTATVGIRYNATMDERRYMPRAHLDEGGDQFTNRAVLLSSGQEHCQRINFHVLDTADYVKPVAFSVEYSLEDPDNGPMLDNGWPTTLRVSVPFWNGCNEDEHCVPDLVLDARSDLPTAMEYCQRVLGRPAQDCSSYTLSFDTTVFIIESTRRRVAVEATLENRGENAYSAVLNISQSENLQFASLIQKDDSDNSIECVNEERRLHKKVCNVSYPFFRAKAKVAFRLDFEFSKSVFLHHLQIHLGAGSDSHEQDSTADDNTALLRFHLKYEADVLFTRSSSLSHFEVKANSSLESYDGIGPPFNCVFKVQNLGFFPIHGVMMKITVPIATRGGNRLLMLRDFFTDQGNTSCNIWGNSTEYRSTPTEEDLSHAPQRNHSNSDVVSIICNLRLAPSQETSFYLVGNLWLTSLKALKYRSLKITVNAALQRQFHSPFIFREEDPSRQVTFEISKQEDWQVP
Chain of mouse α11β1 (P09055 21-728 partner limits assumed): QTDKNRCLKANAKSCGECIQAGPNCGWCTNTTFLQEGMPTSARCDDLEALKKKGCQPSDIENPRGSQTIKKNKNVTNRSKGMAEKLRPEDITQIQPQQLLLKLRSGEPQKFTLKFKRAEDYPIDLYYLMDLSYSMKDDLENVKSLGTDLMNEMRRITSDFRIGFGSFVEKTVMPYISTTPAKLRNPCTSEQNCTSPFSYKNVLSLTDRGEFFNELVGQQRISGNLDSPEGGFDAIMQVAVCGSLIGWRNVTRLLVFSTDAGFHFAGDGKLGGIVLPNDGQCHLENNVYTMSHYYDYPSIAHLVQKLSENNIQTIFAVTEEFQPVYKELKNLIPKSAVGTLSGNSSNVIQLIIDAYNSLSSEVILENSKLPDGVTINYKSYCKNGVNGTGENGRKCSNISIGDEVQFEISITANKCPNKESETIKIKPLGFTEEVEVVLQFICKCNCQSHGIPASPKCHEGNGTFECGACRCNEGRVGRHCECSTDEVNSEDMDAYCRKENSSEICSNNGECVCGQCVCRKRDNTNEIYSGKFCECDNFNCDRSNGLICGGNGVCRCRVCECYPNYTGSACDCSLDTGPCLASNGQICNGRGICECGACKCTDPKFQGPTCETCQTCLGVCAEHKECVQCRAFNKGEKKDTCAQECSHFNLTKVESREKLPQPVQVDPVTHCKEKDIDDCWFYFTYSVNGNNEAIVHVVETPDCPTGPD

B1: 79E3E3: anti-α11β1 monoclonal antibody from rat hybridoma; VH SEQ ID NO: 8, VL SEQ ID NO: 20 (antibody, V domains shown)
VH: QIQLVQSGPEVKKPGESVKISCKASGYTFTDYAMNWVKQAPGNGLKWMGWINTQTGKPTYADDFKQRFVFSLETSARTTYLQINNLNIEDTATYFCTRLGTGNTKGFAYWGQGTLVTVSS
VL: DILINQSPASLTVSAGERVTMSCKSSQSLLYSENNQDYLAWYQQKPGQFPKLLIYGASNRHTGVPDRFTGSGSGTDFTLTISSVQAEDLADYYCEQTYRYPFTFGSGTKLEIK
As to B1, in experiment [1], the “inhibition of secreted Col1a1” value is recorded as “inhibition” and the “inhibition of secreted IL-11” value is “inhibition”. In addition, the midpoint of the response in experiment [2] (Table 13, 79E3E3 variants), the EC50, lay at 2.5 nM. For the same molecule, the Kd in experiment [3] (mouse α11β1, method not given, read-out: Cross reacts with mouse α11β1 (affinity)) is 0.21 nM. In addition, in experiment [4], the “Inhibits CHO-α11 mediated collagen gel contraction” value was “Yes”.

B2: 16E10: anti-α11β1 monoclonal antibody from B cell sorting; VH SEQ ID NO: 57, VL SEQ ID NO: 62 (antibody, V domains shown)
VH: QSLEESGGDLVKPGASLTLTCRVSGFSFSSSYYMCWVRQAPGKGLEWIACIGTTRGSTYYATWAKGRFTISKISSTTVTLQMTSLTDADTATYFCARDATGYRINTIGLYFNLWGPGTLVTVSS
VL: ELTQTPSSVEAAVGGTPTIKCQASQTIYSYLSWYQQKPGQPPKLLIYEASKLASGVPSRFSGSGSGTDYTLTISDLECADAATYYCQSYHGTASTEYNTFGGGTEVVVK
Consider B2, for which, in experiment [1], the “inhibition of secreted Col1a1” value was “inhibition” and the “inhibition of secreted IL-11” value is reported as “inhibition”. Further, the IC50 in experiment [5] (setting [8]) amounted to 0.4 nM. For the same molecule, in experiment [3], the “Cross reacts with mouse α11β1” value was “No”. Moreover, in experiment [4], the “Inhibits CHO-α11 mediated collagen gel contraction” value is “Yes”.

B3: A11BB125: 16E10 variant; VH SEQ ID NO: 55, VL SEQ ID NO: 61 (antibody, V domains shown)
VH: EVQLLESGGGLVQPGGSLRLSCAASGFSFSSSYYMSWVRQAPGKGLEWVSAIGTTRGSTYYADSVKGRFTISRDSSKNTLYLQMNSLRAEDTAVYYCARDATGYRINTIGLYFNLWGQGTLVTVSS
VL: DIVMTQSPDSLAVSLGERATINCQASQTIYSYLSWYQQKPGQPPKLLIYEASKLASGVPDRFSGSGSGTDYTLTISSLQAEDVAVYYCQSYHGTASTEYNTFGGGTKVEIK
B3: the IC50 in experiment [5] (setting [8]) is 0.5 nM.

B4: A11BB129: 16E10 variant; VH SEQ ID NO: 54, VL SEQ ID NO: 61 (antibody, V domains shown)
VH: EVQLLESGGGLVQPGGSLRLSCAASGFSFSSSYYMSWVRQAPGKGLEWVSAIGTTRGSTYYADSVKGRFTISRDNSKNTVYLQMNSLRAEDTAVYYCARDATGYRINTIGLYFNLWGQGTLVTVSS
VL: DIVMTQSPDSLAVSLGERATINCQASQTIYSYLSWYQQKPGQPPKLLIYEASKLASGVPDRFSGSGSGTDYTLTISSLQAEDVAVYYCQSYHGTASTEYNTFGGGTKVEIK
As for B4, in experiment [5] (setting [8]), the IC50 was 0.5 nM.

B5: A11BB127: 16E10 variant; VH SEQ ID NO: 46, VL SEQ ID NO: 61 (antibody, V domains shown)
VH: EVQLLESGGGLVQPGGSLRLSCAASGFSFSSSYYMAWVRQAPGKGLEWVSAIGTTRGSTYYADSVKGRFTISRDNSKNTVYLQMNSLRAEDTAVYYCARDATGYRINTIGLYFNLWGQGTLVTVSS
VL: DIVMTQSPDSLAVSLGERATINCQASQTIYSYLSWYQQKPGQPPKLLIYEASKLASGVPDRFSGSGSGTDYTLTISSLQAEDVAVYYCQSYHGTASTEYNTFGGGTKVEIK
In the case of B5, the IC50 in experiment [5] (setting [8]) is 0.4 nM.

B6: 1994-01-C7 (#9): anti-α11β1 monoclonal antibody from human phage display; VH SEQ ID NO: 32, VL SEQ ID NO: 37 (antibody, V domains shown)
VH: QVQLVQSGAEVKKPGASVKVSCKASGYTFTSYGISWVRQAPGQGLEWMGWISAYNGNTNYAQKLQGRVTMTTDTSTSTAYMELRSLRSDDTAAYYCARVTGITGTTIDPWGQGTMVTVSS
VL: DIQMTQSPSSLSASVGDRVTITCRASQSISSYLNWYQQKPGKAPKLLIYDASSLESGVPSRFSGSGSGTEFTLTISSLQPDDFAVYYCQQYNNWPQTFGQGTKVEIK
Regarding B6, in experiment [1], the “inhibition of secreted Col1a1” value is “inhibition” and the “inhibition of secreted IL-11” value was “inhibition”. Besides, in experiment [6], the EC50 was determined as 3.6 nM. Moreover, the binds cell-mu all entry in experiment [7] is listed as “binds”. The same molecule had an EC50 in experiment [2] (setting [9]) of 3 nM. In addition, the IC50 in experiment [5] (setting [10]) was found to be 3.4 nM. Further, the “Cross reacts with mouse α11β1” value in experiment [3] is on record as “No by SPR”. Besides, the “Inhibits CHO-α11 mediated collagen gel contraction” value in experiment [4] was “Yes”.

B7: Antibody 58: 1994-01-C7 variant; VH SEQ ID NO: 31, VL SEQ ID NO: 37 (antibody, V domains shown)
VH: QVQLVQSGAEVKKPGASVKVSCKASGYTFTSYGISWVRQAPGQGLEWMGWISAYNANVNYAQKLQGRVTMTTDTSTSTAYMELRSLRSDDTAAYYCARVTGITGTTIGPWGQGTMVTVSS
VL: DIQMTQSPSSLSASVGDRVTITCRASQSISSYLNWYQQKPGKAPKLLIYDASSLESGVPSRFSGSGSGTEFTLTISSLQPDDFAVYYCQQYNNWPQTFGQGTKVEIK
Take B7: the EC50 came out at 2.87 nM in experiment [6] and 5.94 nM in experiment [2] (setting [9]). The IC50 in experiment [5] (setting [10]) turned out to be 3 nM.

B8: Antibody 54: 1994-01-C7 variant; VH SEQ ID NO: 30, VL SEQ ID NO: 37 (antibody, V domains shown)
VH: QVQLVQSGAEVKKPGASVKVSCKASGYTFTSYGISWVRQAPGQGLEWMGWISAYNANTNYAQKLQGRVTMTTDTSTSTAYMELRSLRSDDTAAYYCARVTGITGTTIGPWGQGTMVTVSS
VL: DIQMTQSPSSLSASVGDRVTITCRASQSISSYLNWYQQKPGKAPKLLIYDASSLESGVPSRFSGSGSGTEFTLTISSLQPDDFAVYYCQQYNNWPQTFGQGTKVEIK
Take B8: the results for the concentration giving a half-maximal response (EC50) in experiment [6] and in experiment [2] (setting [9]) were 2.4 nM and 5.5 nM, respectively. Besides, the IC50 in experiment [5] (setting [10]) came out at 3.5 nM.

B9: Antibody 60: 1994-01-C7 variant; VH SEQ ID NO: 33, VL SEQ ID NO: 37 (antibody, V domains shown)
VH: QVQLVQSGAEVKKPGASVKVSCKASGYTFTSYGISWVRQAPGQGLEWMGWISAYNSNTNYAQKLQGRVTMTTDTSTSTAYMELRSLRSDDTAAYYCARVTGITGTTIGPWGQGTMVTVSS
VL: DIQMTQSPSSLSASVGDRVTITCRASQSISSYLNWYQQKPGKAPKLLIYDASSLESGVPSRFSGSGSGTEFTLTISSLQPDDFAVYYCQQYNNWPQTFGQGTKVEIK
Regarding B9, the EC50 in experiment [6] worked out at 4.6 nM; in experiment [2] (setting [9]), 5.3 nM. Moreover, in experiment [5] (setting [10]), the IC50 is 4.2 nM.
